Laboratory results: the supplement of paper PMC12764529
± gives the half width of the 95% confidence interval.

Assays:
[1] = folding stability dG unfold (combined trypsin and chymotrypsin); higher = more stable
Outline: (§1)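 Unfolding free energy was derived, per protease or combined, by relating Bayesian-fitted K50 values from sequencing counts to a sequence-predicted unfolded-state K50 and a shared folded-state K50. The underlying digests exposed cysteine-free mini-proteins under 80 residues, in a PA-tagged cDNA display construct, to trypsin and chymotrypsin at 11 threefold-diluted concentrations and to a no-protease condition. A filter kept only designs with AlphaFold2 dimer inter-PAE above 15.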

[2] = folding stability dG unfold from chymotrypsin proteolysis; higher = more stable
Outline: as §1

[3] = folding stability dG unfold from trypsin proteolysis; higher = more stable
Outline: as §1

| Sequence | folding stability dG unfold [1] [kcal/mol] | folding stability dG unfold [2] [kcal/mol] | folding stability dG unfold [3] [kcal/mol] |
| --- | --- | --- | --- |
| SAGKKLKITDPEYKYYPNEGMYWVTIPIRFPDGKPIFDIDYPMPPGQSWDQVREQAKDIARWLIEEGLISAG [r5_238_TrROS] | 1.52 ± 0.095 | 1.93 ± 0.13 | 0.639 ± 0.059 |
| SAGGKKKKLKIKIVIVAKSKEEAEKLAKELAEKLKELGIKEVEIEVEVIELPPPPPPPKPDSPEYKKKSAGG [r13_6_TrROS_Hall] | 0.372 ± 0.42 | -0.131 ± 0.36 | -0.453 ± 0.34 |
| SAGGSAGGSHTIEIWIVKFPPDDFKGKTIEEMAKKFGDPDMPVEIVPIEITLPPDALKALLKNSAGGSAGGS [r12_178_TrROS] | 0.846 ± 0.059 | 0.841 ± 0.061 | 0.768 ± 0.033 |
| SKATVLPNGEVVVTAEATFTLPDGTKVTVRVEVRIGPDGTLRPGVTVTVEPVPPPEKPLNIDFDPVTLPKSA [r9_1168_TrMRF] | 2.67 ± 0.33 | 2.91 ± 0.21 | 0.969 ± 0.13 |
| SAGGSAGGSMEIIPPEELLARLSPEELVLVRLPTAPRLLPREELRLLPRDIPVEVEVIPRLPPSAGGSAGGS [r12_501_TrMRF] | 1.5 ± 0.46 | 2.24 ± 0.1 | 0.496 ± 0.23 |
| SAGGSAGGSAGDFDIKTVKNPPGTLMIVMPDNGWIQQIKFDPKNGKFKIDEIKWIPLDDISAGGSAGGSAGG [r11_352_TrROS] | 0.585 ± 0.11 | 0.602 ± 0.066 | 0.499 ± 0.028 |
| SAGGSAGGSAGGPEAVIEELKKAGYTPKVDPNSSVVTVTYKNPDGTILTKTINVPPSLLSAGGSAGGSAGGS [r10_1173_JUSTAS] | 1.16 ± 0.26 | 1.59 ± 0.2 | -0.269 ± 0.25 |
| SADKVMIMFRSPQTFRRILREALKTDKPVYLMFPPKWMDELKELGFPNVKIEPQKNPNGGPYYMFELPVSAG [r14_127_TrROS] | 1.79 ± 0.18 | 1.75 ± 0.12 | 1.83 ± 0.044 |
| SAGGASVDRELTDPVTGDKIEVTITRLPDGSWLIEVTVTDAEGKTTKYPKTFPPGSYTPEDTIDFTKDSAGG [r13_959_JUSTAS] | 2.1 ± 0.16 | 2.14 ± 0.12 | 1.92 ± 0.2 |
| SAGGSLKIRTVLRLPSPDGTPYLVFSKEAVIHPVPNIVHINLLVPDKEITLTVPLNEVELLGSPEEVLSSAG [r5_15_TrMRF] | 2.65 ± 0.097 | 2.81 ± 0.029 | 2.13 ± 0.048 |
| SMIPVEELVRLAAERLGLPEEELENIEEVEPFEVEPLPDNAVRVKLRIRLKNPESDEVTELDIEIVDPGGSA [r9_230_TrMRF] | 1.92 ± 0.072 | 2.21 ± 0.033 | 1.2 ± 0.021 |
| SAGGMVIPPEATLTGSTTSWVTTSDGRKLLVTTPVYRFPGNTTVVVSTVTDPTSAASTVTVSTEPALSAGGS [r16_370_JUSTAS] | 0.374 ± 0.085 | 0.107 ± 0.12 | 0.498 ± 0.069 |
| SAGGMKVEIIRKDGKKVTLEGMTLEELLALLPEGEEYVIKVEVTVVDEKTKKKETVELTFTVPVEDLSAGGS [r16_806_TrROS_Hall] | 2.04 ± 0.075 | 2.47 ± 0.053 | 1.18 ± 0.047 |
| SAGGSAGGSMVRVTRLPDGTYRIEIELPGESLEREARGPEEVEALAEEIEKETGVPVEIETLESAGGSAGGS [r12_783_JUSTAS] | 0.945 ± 0.14 | 0.908 ± 0.096 | 1.1 ± 0.068 |
| SAGGAMSSPVGTVTLTSPAGETVTITVYPGKTEVTTRPPDGSVTVTSLADKSVEEVIAELKAEGYEVLSSAG [r5_613_JUSTAS] | 3.25 ± 0.039 | 2.99 ± 0.03 | 4 ± 0.18 |
| SAGGSAGGSAPFQIEDIEVEYHRMPPGMPYYPVRARLPGTGREVEIHMPGMPVEDVLDRIIDSAGGSAGGSA [r18_345_TrROS] | -0.141 ± 0.061 | -0.0225 ± 0.088 | -0.446 ± 0.13 |
| SAGGSAGGSAGNWRWIMIPIKVPPGLEAGEEIEIKIPNGVEVWYHYNEPGTIWMMIRVPDSAGGSAGGSAGG [r11_362_TrROS] | 2.88 ± 0.085 | 2.96 ± 0.037 | 2.69 ± 0.069 |
| SIRPGQRIDSLEEVKEIAHRIAEEIQKEHGHPYKVTVNVEYYPEEDGRWYVKAKWYMPNNGKPIREITIMSA [r9_794_TrROS] | 1.71 ± 0.19 | 1.88 ± 0.1 | 1.53 ± 0.059 |
| SAGGSAGGSAGGMFKTYDSLEDVKKNETGDGAKGKVFVVAPIPELENAVLVLVEIRPPDSAGGSAGGSAGGS [r10_126_TrMRF] | 0.231 ± 0.088 | 0.504 ± 0.11 | -0.219 ± 0.069 |
| SAGGSAGGMMYVVKITNEDGETLTIEAESEEEALEAARALAEETGREITRIEVRRLSKEEEEEESAGGSAGG [r6_162_TrROS_Hall] | 2.64 ± 0.064 | 2.787 ± 0.021 | 2.28 ± 0.06 |
| SAGKKTITVEIVVENLTEEEIEEKIREKLKEAGLKVEVVKVEIVKVEEVDGKKYLVVKVEIKIEPEEESAGG [r19_325_TrROS_Hall] | 3.06 ± 0.12 | 2.87 ± 0.084 | 3.5 ± 0.18 |

| Sequence | folding stability dG unfold [1] [kcal/mol] | folding stability dG unfold [2] [kcal/mol] | folding stability dG unfold [3] [kcal/mol] |
| --- | --- | --- | --- |
| SAGGSAGGSAGGMGINVTVSEEVSVLPDPSVVRVTTTTKTPDGTTTVTEEVIPGPEELESAGGSAGGSAGGS [r10_1221_JUSTAS] | 1.2 ± 0.075 | 1.47 ± 0.099 | -0.15 ± 0.045 |
| SAGGSAGGSAGGPIPGSTIPSVPVKIVNIHPDGTKTEYFNSDIPIDALKEKFPGEIEFESSAGGSAGGSAGG [r17_125_TrMRF] | 0.703 ± 0.065 | 0.734 ± 0.029 | 0.562 ± 0.065 |
| SAFKILPDGTILIDIGEDEAKKLSIEEIEALVKEIEKLLPKDYKVEIHIIPKKPIPKPPLIPGKDNLIGSAG [r14_312_TrMRF] | 1.91 ± 0.071 | 1.97 ± 0.041 | 1.94 ± 0.063 |
| SAGGSASMTLYRDEEGKPLFHHSPEPTSSVPRVVPVVNEEGDEKLEIEIPADTPLEELEAIIEELLSAGGSA [r15_309_JUSTAS] | -0.0861 ± 0.096 | -0.33 ± 0.18 | 0.0733 ± 0.04 |
| SAGGSAGGSAGGPAAGEKVVAVGVNPNGETSVREFTVHPDDPLGEVYTEDGTRWYFYPGTSAGGSAGGSAGG [r7_132_TrMRF] | 0.342 ± 0.15 | 0.338 ± 0.23 | 0.303 ± 0.091 |
| SAGGSAKKLKITIVADSEEEARRLAEELARLLRELLPDGSELEVEIEVRVFRPPPPPLPSLEELLASAGGSA [r15_663_TrROS_Hall] | 3.49 ± 0.18 | 3.83 ± 0.12 | 3.2 ± 0.21 |
| SAGGSAKEIKIEVVKVEYDKETKKVTVTLKIEVNGKKIEIKIEVDMTPEEVEEKVKKLAEELLKKLSAGGSA [r15_979_TrROS_Hall] | 3.14 ± 0.25 | 3.03 ± 0.14 | 3.15 ± 0.2 |
| SAGGTSYLVRLELYETSTGEPLELELPFPNLPAEEVEELAKELAKALAEPTGNDLKARVEVVPLPDESAGGS [r8_185_TrMRF] | 0.53 ± 0.052 | 0.717 ± 0.054 | 0.0944 ± 0.031 |
| SAGGSAGGSAPPGQEFPFEPVEEESIPIYDPDNGEPPLTISVWKMRMPGGPPMTFIMISPMSAGGSAGGSAG [r3_166_TrROS] | 2.17 ± 0.069 | 2.32 ± 0.043 | 1.92 ± 0.034 |
| SAGGMTTFELYDPVNNKKYTLTYDPATNTLTLYNPENGEILETKPVPNLQSVEAPIVPGGIEVGVVINSAGG [r13_720_JUSTAS] | 2.5 ± 0.085 | 2.75 ± 0.062 | 2.11 ± 0.07 |
| SAGGSAGGSAGSMQTEVTFERGPGRLTTTTTTKFPDNRWSTTTSTSPVPARPPLPPAPVLLSAGGSAGGSAG [r3_68_JUSTAS] | -0.416 ± 0.22 | -0.709 ± 0.94 | -0.817 ± 0.52 |
| SAGGSAGGSMKWTSIASYPHPDMVVHVIKFEGGGELTFPAPFEDLVEIAEKFDLDLEFTGDHPSAGGSAGGS [r12_676_TrMRF] | 0.447 ± 0.11 | 0.28 ± 0.11 | 0.45 ± 0.072 |
| SAGTVKVSEDGDKLTVTMTAPPESPALVEALIQALKDAGLTIVTAEITTEPGEGDLVRTTITLTLKPPASAG [r5_739_JUSTAS] | 2.46 ± 0.06 | 2.545 ± 0.024 | 2.33 ± 0.082 |
| GPMTVSTKTSTKTYFDPETGVETVVEPVTVTVTFPTSPTVTYTTTVTTTTKVERLPDGPLRTETTTTTTVSS [r1_296_JUSTAS] | 0.0169 ± 0.14 | -0.305 ± 0.38 | -0.135 ± 0.17 |
| SAGGSAGGMRYVTVTVTVPSNGKKYTYTKEIAPDEVFNISEAELAAEFGYPDVVVTVSESPIEDSAGGSAGG [r6_722_JUSTAS] | 3.08 ± 0.076 | 3.39 ± 0.022 | 2.19 ± 0.074 |
| SAGGMSVTFEKEDKTYVITFEPSPEGGYLVTLEVLDPKTGEAKPVATAEFTEGSLEDAVVALLAAEESAGGS [r16_378_TrMRF] | 3.7 ± 0.12 | 3.67 ± 0.08 | 4.08 ± 0.3 |
| SAGGSAGGSAGRVEKIVSNLKPLGYEVLSVEETEDYVLAVVYDPFTDEPRVFRFPKDSPFSAGGSAGGSAGG [r11_428_TrMRF] | 1.41 ± 0.11 | 1.18 ± 0.13 | 1.27 ± 0.017 |
| SAGGSAGGSMEFVEIEIEKELETEVSPDGTTTTRYRVPDGSILVVTTTHPPDGVPTPTVTLVASAGGSAGGS [r20_240_JUSTAS] | 1.08 ± 0.045 | 0.944 ± 0.075 | 1.16 ± 0.021 |
| KPKLTIEYDEETGKFTITLPDGRKIEIELKKDGTVVRIRVKENGKEREIELTLDELKALLDNKDVTIEIIPS [r1_18_TrROS_Hall] | 3.81 ± 0.23 | 3.45 ± 0.2 | 3.95 ± 0.13 |
| SAGGSMTLEEKSEEDYIIRYVEKGDTYSLIKINPNTGTAEVTTFKPGGVPSKTTYKIPKGKELKVTGSAGGS [r8_11_JUSTAS] | 0.481 ± 0.079 | 0.726 ± 0.12 | -0.0399 ± 0.11 |
| SAGGSAGGSAGPIKITSVEYDPNSGTIIARFPDGVVIRIKMNPDGNFKIDEIYPIKPGDLSAGGSAGGSAGG [r17_61_TrROS] | 2.02 ± 0.14 | 1.57 ± 0.08 | 2.37 ± 0.088 |
